Assay results: PMC4988437 (Channels, 2016)

Key:
Assay in all cases: FRET or BRET
[1] = target: T1, CFP-Rem(1-275) (mouse, UniProt O35929 1-275)
T1 sequence (looked up): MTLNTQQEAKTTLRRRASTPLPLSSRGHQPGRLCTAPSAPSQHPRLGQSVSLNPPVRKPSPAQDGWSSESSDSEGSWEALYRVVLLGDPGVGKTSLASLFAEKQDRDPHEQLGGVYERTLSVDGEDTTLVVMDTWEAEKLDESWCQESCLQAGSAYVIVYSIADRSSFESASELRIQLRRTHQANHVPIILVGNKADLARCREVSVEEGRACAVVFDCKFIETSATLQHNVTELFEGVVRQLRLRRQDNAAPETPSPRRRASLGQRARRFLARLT

[2] = target: T2, CFP-Rem(224-297) (mouse, UniProt O35929 224-297)
T2 sequence (looked up): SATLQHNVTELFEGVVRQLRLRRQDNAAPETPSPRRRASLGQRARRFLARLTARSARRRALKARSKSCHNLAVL

[3] = target: T3, CFP-Rem(1-285) (mouse, UniProt O35929 1-285)
T3 sequence (looked up): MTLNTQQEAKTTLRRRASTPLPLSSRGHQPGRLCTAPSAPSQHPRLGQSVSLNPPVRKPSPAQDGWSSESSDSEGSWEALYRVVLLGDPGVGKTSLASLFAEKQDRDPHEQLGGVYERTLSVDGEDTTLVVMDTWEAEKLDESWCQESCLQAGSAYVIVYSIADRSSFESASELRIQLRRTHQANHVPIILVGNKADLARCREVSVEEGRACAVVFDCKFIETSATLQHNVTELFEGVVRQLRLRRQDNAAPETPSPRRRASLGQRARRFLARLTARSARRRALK

B1: YFP-tagged alpha1C N-terminus (domain or fragment)
chain: not shown
FRET efficiency [1]: 0.04
FRET efficiency [2]: 0.439
FRET efficiency [3]: 0.071
